Reference: patent US20220235138A1, “CAR-T CELLS TARGETING IL-1RAP AND THEIR USE IN ACUTE MYELOID LEUKEMIA (AML)” (ETABLISSEMENT FRANCAIS DU SANG, priority 2019, published 2022)

Tests used:
[1] = biological target: T1, recombinant IL-1RAP biotinylated protein (Homo sapiens, UniProt Q9NPH3); assay: Flow cytometry detection of cell surface CAR with biotinylated recombinant IL-1RAP; assay type: binding; details: for amount of recombinant IL-1RAP protein required for recruiting maximum of cells: single experiment
T1 sequence (Q9NPH3 21-359 limits assumed): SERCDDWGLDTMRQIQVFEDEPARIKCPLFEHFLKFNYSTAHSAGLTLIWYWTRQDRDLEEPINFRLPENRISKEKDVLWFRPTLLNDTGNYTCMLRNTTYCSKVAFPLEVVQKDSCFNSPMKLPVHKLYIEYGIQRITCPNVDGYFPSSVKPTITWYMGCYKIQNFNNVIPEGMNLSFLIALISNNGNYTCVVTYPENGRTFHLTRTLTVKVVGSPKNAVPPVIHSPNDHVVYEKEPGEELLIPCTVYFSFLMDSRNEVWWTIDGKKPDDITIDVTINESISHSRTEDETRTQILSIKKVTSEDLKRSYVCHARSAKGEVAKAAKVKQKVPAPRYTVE
Procedure: CEM cell line or primary T cells were transduced either with Mock or CAR IL-1RAP. Cells were then incubated in presence of increasing amount of recombinant IL-1RAP labelled with biotin. Staining was performed with an anti-biotin fluorescent antibody and analyzed by flow cytometry. Percentage of Biotin+/CD19+ CEM or T-cells plotted against amount of labelled biotin recombinant protein. Dot plots of cytometry analyze were provided for representative staining, including maximum. Untransduced T cells (C0) or Mock T cells were used as control.
Additional analysis using serial dilution of biotinylated IL-1RAP protein (from 20 ng to 2.4 pg/ml) and FACS analysis allow to detect either IL-1RAP CAR transduced CEM T cell line or primary T-cells.

[2] = system: iCASP9/AP1903 suicide system; assay: Optical microscopy of transduced 293T cells after CID AP1903 exposure; assay type: cell-based, human; details: CID AP1903 20 nM, 24 h (10 nM)
[3] = transduced primary T-cells (GMTC)

B1: IL-1RAP CAR: chimeric antigen receptor: #E3C3 scFv in frame with CD28-4.1BB-CD3z signaling chain; tested in transduced CEM, primary T or 293T cells (protein)
scFv: QVQLQQPGAELMMPGASVKVSCEASGYTFTDSWMHWVKQRPGQGLEWIGAIDPSDSYTTYNQKFTGKATLSVDESSNTAYMQLSSLTSEDSAVYYCARYYSGSNYISPFPYWGQGTLVTVSAGGSGGGGSGGGGSVDMESQIQVFVFVFLWLSGVDGDIVMTQSHKFMSTSVGDRVTITCKASLDVSTAVAWYQQKPGQSPKLLIYSASYRYTGVPDRFTGSGSGTDFTFTISSVQAEDLAVYYCQQHYSPPFTFGSGTNLEIK
modifications: left off: small tags and cut ends
notes: chimeric antigen receptor: #E3C3 scFv in frame with CD28-4.1BB-CD3z signaling chain; tested in transduced CEM, primary T or 293T cells
- CAR recognition and binding of IL-1RAP protein [1]: CAR specific recognition and binding of IL-1RAP protein
- maximum percentage of Biotin+/CD19+ cells ([1]; transduced CEM T cell line): 85.8%
- amount of recombinant IL-1RAP protein required for recruiting maximum of cells ([1]; transduced CEM T cell line): 1.25 ng
- maximum percentage of Biotin+/CD19+ cells [1, 3]: 68.5%
- amount of recombinant IL-1RAP protein required for recruiting maximum of cells [1, 3]: 0.15 ng
- sensitivity of transduced 293T cell culture to CID [2]: sensitive to the CID
